In the assay the target is T1, Human FAP expressed on the cell surface (WI38, CHO-FAP1.9, U87MG cells) (human, UniProt Q12884 1-760).
T1 construct: whole, on cells; Endogenous on WI38 and U87MG cells; from a human FAP cDNA (OriGene) in CHO-FAP1.9 cells; also called hFAP; FAP+ cells
T1 sequence (looked up): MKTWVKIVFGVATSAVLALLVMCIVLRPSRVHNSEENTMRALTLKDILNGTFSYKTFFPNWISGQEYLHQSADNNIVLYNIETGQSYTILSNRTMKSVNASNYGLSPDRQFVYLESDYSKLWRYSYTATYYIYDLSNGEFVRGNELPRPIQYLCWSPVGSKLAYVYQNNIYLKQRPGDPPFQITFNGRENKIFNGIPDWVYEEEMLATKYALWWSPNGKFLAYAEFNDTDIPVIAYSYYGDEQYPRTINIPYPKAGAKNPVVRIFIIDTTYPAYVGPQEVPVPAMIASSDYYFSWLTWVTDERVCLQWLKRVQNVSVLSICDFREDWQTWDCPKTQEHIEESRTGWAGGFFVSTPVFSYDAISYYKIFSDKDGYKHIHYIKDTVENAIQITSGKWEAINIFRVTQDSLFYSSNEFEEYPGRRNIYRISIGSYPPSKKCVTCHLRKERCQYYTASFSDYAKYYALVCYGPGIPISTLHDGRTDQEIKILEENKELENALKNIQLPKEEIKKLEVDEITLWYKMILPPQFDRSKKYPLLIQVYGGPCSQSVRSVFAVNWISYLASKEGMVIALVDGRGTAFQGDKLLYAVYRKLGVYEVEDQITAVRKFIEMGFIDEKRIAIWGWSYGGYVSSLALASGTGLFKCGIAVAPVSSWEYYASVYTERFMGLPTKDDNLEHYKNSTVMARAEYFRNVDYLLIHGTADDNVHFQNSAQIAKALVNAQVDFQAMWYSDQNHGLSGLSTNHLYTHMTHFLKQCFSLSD
Kind of assay: FACS on U87MG cells (FAP on the cell surface), His-tag detected with Penta-His AF647 conjugate, median fluorescence intensity. The protocol: In order to determine whether the fusion of a biologically active molecule to a FAP-specific ankyrin repeat domain affects the ability of the molecule to specifically recognize and bind to FAP expressed on the surface of cells, the binding of selected ankyrin repeat fusion proteins to FAP-expressing cells was tested. U87 MG cells and WI38 cells are known to express FAP on the cell surface and they were chosen as representative cells for these experiments. FAP expression on the U87 MG and WI38 cells was confirmed by FACS analysis (data not shown).
Using multi-well plates, 40,000 cells (either U87MG or WI38) were added per well in 50 μl of PBS. 50 μl of appropriate dilutions (2× dilution steps) of ankyrin repeat fusion protein (DARPin® protein #40 or DARPin® protein #41) was then added to the cells and incubated for 30 minutes on ice. After the ankyrin repeat fusion protein-binding reaction, cells were washed twice with PBS. Direct immunofluorescent detection of the His-tagged ankyrin repeat fusion proteins using Penta-His AF647 conjugate (QIAgen) and determination of live cells using LIVE/DEAD™ Fixable Green Dead Cell Stain Kit (ThermoFisher) were then performed together in one step. […] Acquisition and FACS analysis, including the determination of median fluorescence intensity (MFI), were done within 5 days after staining using an AttuneNxT instrument. […]

Here are results for one molecule from patent US20220242973A1 (Molecular Partners, published 2022).

B1: DARPin® protein #41 (designed binder)
chain: MRGSHHHHHHGSDLGKKLLEAARAGQDDEVRELLKAGADVNAKDYFSHTPLHLAARNGHLKIVEVLLKAGADVNAKDFAGKTPLHLAANEGHLEIVEVLLKAGADVNAQDIFGKTPADIAADAGHEDIAEVLQKAAGSPTPTPTTPTPTPTTPTPTPTGSDLGEKLLVAALYGQDDEVRILLAAGADVNAKDQWGLTPLHKAALQGHLEIVEVLLKAGADVNAKDERGHTPLHWAARFGHLEIVEVLLKAGADVNAQDQKGYTPADLAALWGHEDIAEVLQKAA
notes: Fusion of a serum albumin-specific and a FAP-specific ankyrin repeat domain
Turning to B1, the “EC50 (read off the curve)” value was around 2 nM.

As usually defined, the EC50 (read off the curve) is the concentration giving half of the maximal effect. Higher therefore signals lower potency in that assay.
